The assay addresses T1, purified Mfn2 (human, UniProt O95140 1-757).
T1 sequence (looked up): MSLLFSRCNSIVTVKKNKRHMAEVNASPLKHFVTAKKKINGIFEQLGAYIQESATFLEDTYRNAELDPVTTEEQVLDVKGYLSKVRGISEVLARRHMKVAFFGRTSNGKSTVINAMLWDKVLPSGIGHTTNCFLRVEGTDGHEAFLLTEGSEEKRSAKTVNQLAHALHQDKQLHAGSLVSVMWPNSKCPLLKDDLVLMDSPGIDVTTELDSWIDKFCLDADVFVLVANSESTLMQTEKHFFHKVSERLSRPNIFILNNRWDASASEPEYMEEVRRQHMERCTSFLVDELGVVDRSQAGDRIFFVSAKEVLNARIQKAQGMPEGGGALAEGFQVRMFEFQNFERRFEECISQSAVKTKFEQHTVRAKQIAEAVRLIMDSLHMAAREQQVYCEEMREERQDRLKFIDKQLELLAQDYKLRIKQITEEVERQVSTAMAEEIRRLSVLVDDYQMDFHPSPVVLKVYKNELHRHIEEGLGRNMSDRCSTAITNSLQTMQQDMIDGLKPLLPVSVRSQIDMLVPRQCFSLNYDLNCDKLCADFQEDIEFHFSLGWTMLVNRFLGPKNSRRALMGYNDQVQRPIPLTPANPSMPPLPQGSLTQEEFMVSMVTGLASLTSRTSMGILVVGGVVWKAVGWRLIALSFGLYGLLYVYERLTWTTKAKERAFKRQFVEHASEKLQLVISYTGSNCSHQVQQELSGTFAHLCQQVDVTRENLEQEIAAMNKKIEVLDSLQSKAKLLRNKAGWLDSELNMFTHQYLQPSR
In words: pull-down.

B1: purified and biotinylated TAK1 (enzyme, human, UniProt O43318 1-606, looked up)
chain: MSTASAASSSSSSSAGEMIEAPSQVLNFEEIDYKEIEVEEVVGRGAFGVVCKAKWRAKDVAIKQIESESERKAFIVELRQLSRVNHPNIVKLYGACLNPVCLVMEYAEGGSLYNVLHGAEPLPYYTAAHAMSWCLQCSQGVAYLHSMQPKALIHRDLKPPNLLLVAGGTVLKICDFGTACDIQTHMTNNKGSAAWMAPEVFEGSNYSEKCDVFSWGIILWEVITRRKPFDEIGGPAFRIMWAVHNGTRPPLIKNLPKPIESLMTRCWSKDPSQRPSMEEIVKIMTHLMRYFPGADEPLQYPCQYSDEGQSNSATSTGSFMDIASTNTSNKSDTNMEQVPATNDTIKRLESKLLKNQAKQQSESGRLSLGASRGSSVESLPPTSEGKRMSADMSEIEARIAATTAYSKPKRGHRKTASFGNILDVPEIVISGNGQPRRRSIQDLTVTGTEPGQVSSRSSSPSVRMITTSGPTSEKPTRSHPWTPDDSTDTNGSDNSIPMAYLTLDHQLQPLAPCPNSKESMAVFEQHCKMAQEYMKVQTEIALLLQRKQELVAELDQDEKDQQNTSRLVQEHKKLLDENKSLSTYYQQCKKQLEVIRSQQQKRQGTS
modifications: biotinylated
Consider B1, for which the binding result is reported as “binds”.
